Earlier results on one substance are cited in PMC2865993.

In the series the target is actin filament (sides) (Oryctolagus cuniculus) (UniProt P68135).

In the case of “formin (mDia1 FH2) FH2 (from UniProt O08808)”, the Kd was 3000 nM.

As usually defined, the Kd is the constant that tells how readily two partners part at equilibrium.
